How the values were obtained:
mCherry-LacI-H3 = mCherry-LacI-H3 (UniProt P68431); assay: F2H (live cell imaging, recruitment to LacO array); settings: n=20; parent: est. 1.7; read off a plot
MBP H3 116–135 (human) = assay: ITC; MicroCal iTC200; sNASP (180, 150, 100 μM) in the syringe injected into MBP H3 116–135 (30, 15, 10 μM) in the cell; 20 mM Hepes-KOH pH 7.5, 200 mM sodium chloride; one-site model

other: enrichment ratio (mCherry-LacI-H3)	Kd (MBP H3 116–135 (human)) [nM]	stoichiometry N (MBP H3 116–135 (human))	Substance
1.2			EGFP-sNASP (from UniProt P49321-2) E211A; E215A; E217A
1.1			EGFP-sNASP (from UniProt P49321-2) E246A; Y249S; L253S
	47 to 68	1	sNASP (from UniProt P49321-2 1-449) (natural protein; other documents disagree on this pair)

From article PMC4838342
